The numbers were not newly measured in PMC6156988, which cites them from elsewhere.

This data set deals with EspFu (Escherichia coli) (UniProt P0DJ88).
Chain of UniProt P0DJ88 (P0DJ88 whole entry): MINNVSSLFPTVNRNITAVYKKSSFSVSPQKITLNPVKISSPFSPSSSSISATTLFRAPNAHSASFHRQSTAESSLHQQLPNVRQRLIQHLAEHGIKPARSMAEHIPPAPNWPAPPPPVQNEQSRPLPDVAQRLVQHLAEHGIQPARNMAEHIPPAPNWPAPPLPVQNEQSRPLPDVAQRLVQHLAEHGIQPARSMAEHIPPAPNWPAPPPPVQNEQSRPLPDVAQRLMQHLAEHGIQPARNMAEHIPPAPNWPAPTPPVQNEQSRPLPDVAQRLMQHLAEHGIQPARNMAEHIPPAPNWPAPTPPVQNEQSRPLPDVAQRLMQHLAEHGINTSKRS

As to IRTKS SH3 (from UniProt Q9UHR4), the dissociation constant Kd was 500 nM.
